Measured values as given in CN101022829A (GENENTECH INC, dated 2007).

How the values were obtained:
human CD20 (human) [1] = target: T1, human CD20 (human) (UniProt P11836); assay: Scatchard, competition with 125I-2H7.v16 on WIL2-S cells, n=3
T1 sequence (looked up): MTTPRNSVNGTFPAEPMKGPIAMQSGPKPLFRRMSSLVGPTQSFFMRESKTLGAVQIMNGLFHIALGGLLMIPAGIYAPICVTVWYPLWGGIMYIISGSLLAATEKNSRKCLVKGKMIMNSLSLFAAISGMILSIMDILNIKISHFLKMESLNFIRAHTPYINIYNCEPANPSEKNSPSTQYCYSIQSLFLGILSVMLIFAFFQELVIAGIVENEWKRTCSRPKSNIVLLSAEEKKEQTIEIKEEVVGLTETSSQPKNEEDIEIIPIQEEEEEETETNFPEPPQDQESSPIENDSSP

human CD20 (human) [2] = target: T1, human CD20 (human); assay: cell-based or functional assay
human CD20 [3] = target: T2, human CD20 (human, UniProt P11836 1-297); assay: cell ELISA, WIL2-S; v16 as comparator, normalised to chimera
T2 construct: whole, on cells; also called Bp35
T2 sequence (looked up): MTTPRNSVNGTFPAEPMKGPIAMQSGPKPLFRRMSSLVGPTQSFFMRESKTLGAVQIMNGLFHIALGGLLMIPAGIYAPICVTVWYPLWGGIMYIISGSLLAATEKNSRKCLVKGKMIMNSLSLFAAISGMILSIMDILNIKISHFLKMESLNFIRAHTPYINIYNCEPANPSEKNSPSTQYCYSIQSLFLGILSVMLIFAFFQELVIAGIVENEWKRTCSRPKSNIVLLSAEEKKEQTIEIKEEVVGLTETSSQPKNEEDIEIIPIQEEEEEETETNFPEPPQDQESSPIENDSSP

human CD20 [4] = target: T2, human CD20; assay: Scatchard, competition with 125I-2H7.v16 on WIL2-S cells, n=4

RITUXAN (rituximab) (antibody) was tested. Which Kd (human CD20 (human) [1]) did it give?
The Kd was 0.99 nM.

And the ADCC, EC50(variant)/EC50(2H7.v16) (human CD20 (human) [2])?
The ADCC, EC50(variant)/EC50(2H7.v16) was 5.3.

And the ADCC, EC50(variant)/EC50(RITUXAN) (human CD20 (human) [2])?
Its ADCC, EC50(variant)/EC50(RITUXAN) is 1.

What about the CDC, EC50(variant)/EC50(RITUXAN) (human CD20 (human) [2]) of the same molecule?
Its CDC, EC50(variant)/EC50(RITUXAN) is 1.

B1: 2H7.v138 (antibody, human IgG1, kappa, V domains shown)
VH: EVQLVESGGGLVQPGGSLRLSCAASGYTFTSYNMHWVRQAPGKGLEWVGAIYPGNGATSYNQKFKGRFTISVDKSKNTLYLQMNSLRAEDTAVYYCARVVYYSASYWYFDVWGQGTLVTVSS
VL: DIQMTQSPSSLSASVGDRVTITCRASSSVSYLHWYQQKPGKAPKPLIYAPSNLASGVPSRFSGSGSGTDFTLTISSLQPEDFATYYCQQWAFNPPTFGQGTKVEIKR
B1 was tested. Which relative binding (ratio to v6.8) (human CD20 [3]) did it give?
Its relative binding (ratio to v6.8) is 1.2.

B2: 2H7.v73 (antibody, V domains shown)
VH: EVQLVESGGGLVQPGGSLRLSCAASGYTFTSYNMHWVRQAPGKGLEWVGAIYPGNGDTSYNQKFKGRFTISVDKSKNTLYLQMNSLRAEDTAVYYCARVVYYSASYWYFDVWGQGTLVTVSS
VL: DIQMTQSPSSLSASVGDRVTITCRASSSVSYLHWYQQKPGKAPKPLIYAPSNLASGVPSRFSGSGSGTDFTLTISSLQPEDFATYYCQQWSFNPPTFGQGTKVEIKR
Which Kd (human CD20 [4]) does the source give for B2 here?
The Kd was 1.22 nM.
